Source: publication PMC5449630 (Nucleic Acids Research, 2017)
Each block holds one binder with its values, some of them ahead of it.

Experiments:
SEC = biological target: the molecule itself; assay: SEC
[1] = biological target: T1, DNA ligase IV tandem BRCT domains (residues 654-911) (UniProt P49917 654-911); assay: SEC
T1 sequence (looked up): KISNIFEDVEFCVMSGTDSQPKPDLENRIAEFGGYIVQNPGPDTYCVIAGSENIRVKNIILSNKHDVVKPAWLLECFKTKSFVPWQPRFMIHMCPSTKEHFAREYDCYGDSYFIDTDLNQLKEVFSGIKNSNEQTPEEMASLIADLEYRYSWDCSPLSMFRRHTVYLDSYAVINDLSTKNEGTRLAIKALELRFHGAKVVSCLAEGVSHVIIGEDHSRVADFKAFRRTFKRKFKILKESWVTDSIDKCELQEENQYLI

SEC-MALS = biological target: the molecule itself; assay: SEC-MALS

binding result [1]: binds
B1: XRCC4 residues 1-238, non-phosphorylated (domain or fragment, UniProt Q13426 1-238, looked up)
chain: MERKISRIHLVSEPSITHFLQVSWEKTLESGFVITLTDGHSAWTGTVSESEISQEADDMAMEKGKYVGELRKALLSGAGPADVYTFNFSKESCYFFFEKNLKDVSFRLGSFNLEKVENPAEVIRELICYCLDTIAENQAKNEHLQKENERLLRDWNDVQGRFEKCVSAKEALETDLYKRFILVLNEKKTKIRSLHNKLLNAAQEREKDIKQEGETAICSEMTADRDPVYDESTDEESE
binding result (SEC): binds

binding result [1]: binds
B2: CK2-phosphorylated XRCC4 residues 1-238 (domain or fragment, UniProt Q13426 1-238, looked up)
chain: B1 chain
modifications: phosphoserine at 232, phosphothreonine at 233 (CK2alpha in vitro)
stoichiometry N (SEC-MALS): 2
